# Source: the supplement of paper PMC10126150
# ± gives the standard deviation of the averaged measurements.
# Test system: ATP
# Assay: switch fluorescence ratio, 500 uM ATP over buffer (Cy3 cluster intensity, sum of 5 cycles each) (fold (ratio)); higher = stronger signal-on switching upon ATP binding; sequences stand for … in TCGTCGGCAGCGTCAGATGTGTATAAGAGACAGTTTTTTTTTTTTTTTTTTTTTTTTT…TC
# Conditions: aptamer strand: ATP DNA aptamer (quencher-CACCTGGGGGAGTATTGCGGAGGAAGG + anchor), 100 nM annealed; ATP concentration: 500 uM
# In short: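 Cy3-labelled switching-strand clusters on a modified Illumina MiSeq flow-cell were annealed to 100 nM quencher-labelled ATP aptamer, imaged in selection buffer, then imaged after 15 min with 500 uM ATP at 22 °C. Five buffer/ATP cycles ran, with NaOH stripping and re-annealing between them. The fluorescence ratio is summed target-cycle over summed buffer-cycle Cy3 intensity per cluster, averaged per switch-domain sequence. Clusters outside 100-1000 RFU were excluded.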
# 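Further: ATP exposure 15 min at 22 °C before imaging.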
row,Sequence,switch fluorescence ratio
1,GAGGGGTCCA,0.974 ± 0.021
2,TCGGCTGGAA,1.027 ± 0.0025
3,CATGAATTCA,1.04 ± 0.033
4,TTACCGGGCT,1.051 ± 0.004
5,CGGCTGGCTT,1 ± 0.033
6,GTCTTCACGG,0.999 ± 0.01
7,ATGGAGGCGT,0.994 ± 0.015
8,TTAACGTAGA,1.04 ± 0.015
9,AAGAAGGAGC,0.974 ± 0.039
10,TTGGTCCGTG,1.01 ± 0.071
11,TAAATTAGTT,1.01 ± 0.017
12,TTGTTCGGTA,1.02 ± 0.016
13,CAAGGGGTCC,1.01 ± 0.032
14,ACTCGTTTCG,1 ± 0.013
15,TTGATTCG,1.015 ± 0.0037
16,TAAGGTTGGC,1.02 ± 0.04
17,TTGTGTAGTC,1.005 ± 0.0091
18,TTGGTGTGTG,0.958 ± 0.022
19,TTTAAGTCT,0.984 ± 0.095
20,AATGATGCTT,1 ± 0.051
21,TGGGCACGGT,0.969 ± 0.049
22,ATACAGCGA,1.066 ± 0.01
23,ACAGTCGGTG,1.028 ± 0.0066

row,Sequence,switch fluorescence ratio
1,TCGGCCTGCT,1.01 ± 0.021
2,TGTATTATGT,1.002 ± 0.004
3,CAGGGAGGGA,0.992 ± 0.02
4,ACAAGATTTT,0.9788 ± 0.0046
5,GTGCGGTGGC,1.04 ± 0.038
6,ATCATCTGAC,1.095 ± 0.0095
7,CGTTCTAGTT,1.001 ± 0.01
8,AGAATTGGCA,1 ± 0.037
9,TGCATTTTTG,1.06 ± 0.053
10,GGGGAAGCCG,1.01 ± 0.027
11,GGTGATACGA,1.07 ± 0.02
12,GGTTTTTATG,1.004 ± 0.009
13,AAAAGGGAGT,0.972 ± 0.013
14,ATTGTGGGGG,0.991 ± 0.016
15,TTCCTTGCGT,1.14 ± 0.043
16,CAATGGTTCT,0.993 ± 0.036
17,GGTATATTTT,1.03 ± 0.1
18,GGGGTTTTGT,1.01 ± 0.011
19,TGAGATAGAG,0.975 ± 0.018
20,ATTACAACGA,1.015 ± 0.0032
21,TTTGGGGCTA,1.05 ± 0.15
22,GAGCTGGAGG,1 ± 0.017
23,GCATTATCTA,1.01 ± 0.07

row,Sequence,switch fluorescence ratio
1,GAGAGGGGGT,0.998 ± 0.05
2,GGGGGTCCTA,0.977 ± 0.0099
3,CGTTTTGGTT,0.976 ± 0.021
4,AATGCTCGCT,1.022 ± 0.0061
5,AGTAAGGTTT,0.985 ± 0.04
6,CTTAGGCGGG,1 ± 0.059
7,TTACGGGTGC,1.19 ± 0.033
8,TGATGATCC,1.01 ± 0.042
9,CAGGTTTTGG,0.964 ± 0.034
10,ATATACTTCT,1.02 ± 0.025
11,AAGGAAGTGC,1.003 ± 0.0086
12,GTGATCTATA,0.99 ± 0.025
13,CACTTTGGAT,0.9914 ± 0.0032
14,ATTTTCTATG,0.978 ± 0.029
15,TTGGAATGGT,1.04 ± 0.029
16,CGTTTGTACT,1.022 ± 0.0013
17,GGGAGGCAGG,1.07 ± 0.029
18,AGTTTATCAT,0.9996 ± 0.0089
19,TTTGTCCCGT,0.98 ± 0.026
20,GACCCTGGGT,1.06 ± 0.033
21,TAATGTTTTT,0.985 ± 0.039
22,TGGTACTTGT,1.01 ± 0.027
23,CAAATATACG,1.23 ± 0.23

row,Sequence,switch fluorescence ratio
1,TATAATTGCG,0.977 ± 0.036
2,CCAGGTTTGT,1.17 ± 0.016
3,TCGGGTGTGT,0.9889 ± 0.009
4,GTATGAAATC,1.02 ± 0.036
5,CTTGTGGCTT,1.034 ± 0.0061
6,TGGGCAGATG,0.989 ± 0.016
7,GAATTTATTT,0.999 ± 0.025
8,TTTACAAGGT,1.03 ± 0.014
9,TTTGGGGTG,1.04 ± 0.022
10,GCAGGTTCGG,1.01 ± 0.037
11,CGGGGCGTCA,0.978 ± 0.032
12,GCACGGGGGG,1.03 ± 0.0077
13,TGGGGCGGAG,0.979 ± 0.031
14,TTCCTGAAGG,1.02 ± 0.041
15,GCGAGCCTCC,1.3 ± 0.052
16,GAGGATTTAA,1 ± 0.03
17,GCGGTACTGC,0.999 ± 0.019
18,ACTTTTTTT,1 ± 0.0022
19,AGGGGATCAA,0.985 ± 0.015
20,TTTGCTTAGA,1.04 ± 0.025
21,TGTCAGGGGT,1.03 ± 0.043
22,GGTCATGTTT,0.993 ± 0.043
23,TTCTTGCTGG,0.997 ± 0.019

row,Sequence,switch fluorescence ratio
1,TGAGGTTAGT,1.09 ± 0.19
2,CGGATTAATT,0.9862 ± 0.0024
3,TGGTACATCA,0.973 ± 0.054
4,ATGTATTTAT,1.04 ± 0.061
5,AGCGACGGAC,1.42 ± 0.1
6,GCATTTTAGG,0.967 ± 0.045
7,TATCGGCTGT,1.01 ± 0.011
8,GGGTTGGTTT,1.0207 ± 0.00021
9,TAGAGGGCCA,1.01 ± 0.044
10,CGAGGCCTCG,0.994 ± 0.038
11,CTCCGGGGTT,1.85 ± 0.35
12,TACGGCGCGA,1.39 ± 0.58
13,CACAATGCAG,1 ± 0.033
14,GAAGTATGGT,1.01 ± 0.031
15,CGATATGGGC,1.02 ± 0.014
16,ATTTCGATAT,0.979 ± 0.038
17,TTCTGTGGAA,1.04 ± 0.036
18,CACAGGGGGA,2.67 ± 1.3
19,TTATTTCGAA,1.01 ± 0.012
20,AACTGAAGTG,0.984 ± 0.023
21,CTTAGTATAG,0.998 ± 0.032
22,AAGACGTCAC,1.91 ± 0.14
23,TTTCACGGGA,1.07 ± 0.066

row,Sequence,switch fluorescence ratio
1,ACAGTCGACT,1.032 ± 0.0074
2,TATAATTTCG,1.003 ± 0.0024
3,ACATAGATTT,1.03 ± 0.029
4,GGGAGTAGGG,0.998 ± 0.015
5,GTATGTAAT,0.997 ± 0.011
6,GGTTGTGGGA,0.98 ± 0.053
7,TTCCCTGTTT,1.01 ± 0.023
8,TATATGTGGG,0.9705 ± 0.0077
9,GTATAACCCG,0.992 ± 0.026
10,TTTTTAATGC,0.979 ± 0.034
11,ACATGGGGAG,1.02 ± 0.016
12,GTGAACGGCG,1.06 ± 0.014
13,GGAGTTTAAG,0.996 ± 0.039
14,GGGATAAAAT,1.01 ± 0.017
15,AATTAACTAT,1.02 ± 0.027
16,TATGAGGGGG,1.02 ± 0.04
17,AAACCGGGCA,1.22 ± 0.22
18,TTGAATGCCG,1.04 ± 0.035
19,GTGGAACGTA,0.976 ± 0.015
20,TCGGGTTGG,1.03 ± 0.02
21,TAGGTTATTA,0.9988 ± 0.0097
22,CACGGGGTCG,1.036 ± 0.0027
23,GGATCGAGAC,0.9755 ± 0.0034

row,Sequence,switch fluorescence ratio
1,AATATTGGTG,1.0416 ± 0.001
2,GACGGGCCGT,1.01 ± 0.021
3,GGCGCATGGA,0.991 ± 0.023
4,AGTTTCTGTG,0.968 ± 0.059
5,TTTCGGAAAG,0.967 ± 0.042
6,CCGTTTTTAT,1.01 ± 0.018
7,AGCTTAGGGC,0.989 ± 0.03
8,AACTTTGCAG,1.016 ± 0.0052
9,AAAGCTTGGA,1.03 ± 0.058
10,CCAGAGGGAT,0.992 ± 0.024
11,TTTATTTAAC,1.052 ± 0.01
12,TAGGTGGCGG,0.9906 ± 0.0071
13,TGGGTAGGCT,0.996 ± 0.035
14,GTTCGGGGAC,1.026 ± 0.0094
15,ACTATATTGG,1.065 ± 0.0095
16,AGGTCAGCTG,0.99 ± 0.018
17,CGGATATATA,1.08 ± 0.049
18,ATCTGCCGGT,0.981 ± 0.017
19,AAGTTGCTGG,0.985 ± 0.019
